{
  "source": "patent US9340580B2",
  "about": "“Peptide with multiple epitopes” (priority 2007, dated 2016)",
  "molecules": {"B1": {"name": "HDM21B (peptide)", "peptide": "RGKPFQLEAVFEANQNT", "notes": "Synthetic peptide, 82.6% purity"}, "B2": {"name": "HDM26A (peptide)", "peptide": "DGVLACAIATHAKIR", "notes": "Synthetic peptide"}, "B3": {"name": "HDM23A (peptide)", "peptide": "DGLEVDVPGIDPNACH", "notes": "Synthetic peptide, 66.7% purity"}, "B4": {"name": "HDM48 (peptide)", "peptide": "TAIFQDTVRAEMTK", "notes": "Synthetic peptide, 79.1% purity"}, "B5": {"name": "HDM39A (peptide)", "peptide": "HDDVVSMEYDLAYKL", "notes": "Synthetic peptide, 80.9% purity"}, "B6": {"name": "HDM22A (peptide)", "peptide": "EAVFEANQNTKTAK", "notes": "Synthetic peptide, 90.3% purity"}, "B7": {"name": "HDM49 (peptide)", "peptide": "DTVRAEMTKVLAP", "notes": "Synthetic peptide, 69.5% purity"}, "B8": {"name": "HDM21A (peptide)", "peptide": "KPFQLEAVFEANQNTK", "notes": "Synthetic peptide, 90.1% purity"}},
  "key": {"DRB1*0701": {"molecular_target": "DRB1*0701 (Homo sapiens, UniProt P01903+P01911, A100R/A102G/A103Q/D57E/D86V/E43K/F76Y/K127E/L162R/M171V/P40G/Q125H/Q99D/R33Q/R42Y/R54Q/S133A/S66F/T210M/V115G/Y107V/Y59L/Y89S)", "test": "competitive MHC class II binding assay", "conditions": "control peptide Influenza haemagglutinin 307-319", "text": "(§1) This is a characteristic of promiscuous HLA-DRB1* binders."}, "DRB1*0401": {"molecular_target": "DRB1*0401 (Homo sapiens, UniProt P01903+P01911, A100K/A169T/F76Y/I96L/K127E/L162R/M171V/N62H/P40V/Q125Y/R42H/S133A/S149N/S66Y/V115G/V209L/W38E)", "test": "competitive MHC class II binding assay", "conditions": "control peptide Influenza haemagglutinin 307-319", "text": "as §1"}, "[1]": {"test": "precipitation in the aqueous solution of the binding assay", "assay_type": "physicochemical", "conditions": "read-out: Precipitation in assay: lowest concentration at which an insoluble white precipitate is seen", "text": "as §1"}, "[2]": {"test": "solubility pre-screen in an aqueous, acidic milieu", "assay_type": "physicochemical"}, "DQA1*0102/DQB1*0602": {"molecular_target": "DQA1*0102/DQB1*0602 (Homo sapiens, UniProt P01909+P01920, A157G/A45G/C70R/E118A/E183D/E77G/F83G/G63E/H151Q/H199R/H252R/H253Q/I129T/I235V/I88M/INS77G/K197Q/L117V/L119F/L178F/L71W/L74F/L85Q/L91A/L98M/N214S/P87R/Q116E/Q76K/R102G/R240Q/R75S/R78G/S102Y/S185I/S41F/S97I/T121G/T122I/T172A/T86R/V229M/V68A/V73E/Y34C/Y41F/Y58L)", "test": "competitive MHC class II binding assay", "conditions": "control peptide Human Insulin B 1-15", "experimental": "as §1\nIn addition, to identify lower affinity binders, the assay was also carried out under less stringent conditions. All the Der p binding peptides were seen to have a high ratio when tested against this allotype, showing they were low affinity binders compared to the control peptide. The DQA1*0102/DQB1*0602 binding assay uses a peptide from the B-chain of human insulin which is of lower affinity compared to those used in the DR assays. This dictates that the DQ assay is very sensitive and tends to produce very low ratio values for the strongest binders to this MHC Class II allotype. This sensitivity also accounts for the relatively higher number of DQ binding peptides within the panel screened. Finally, on closer analysis, the peptides identified as ligands for the DRB1*0101,*0401, *0701 superfamily, are found to incorporate a motif that is characteristic of promiscuous binders to this family of allotypes where: P1=Y, F, W, L, I, V, or M (Large aromatic or hydrophobic residue), P6=S, T, C, A, P, V, I, M (small, non-charged residue)"}, "DRB1*1101": {"molecular_target": "DRB1*1101 (Homo sapiens, UniProt P01903+P01911, A100R/A169T/A87E/I96F/K41T/L162R/M171V/P40S/Q125H/Q178H/Q39Y/Q99D/R42S/S66Y/T262R/V115G/W38E)", "test": "competitive MHC class II binding assay", "conditions": "control peptide Influenza haemagglutinin 307-319", "text": "as §1"}, "[3]": {"tested_on": "human MHC class II allotypes", "test": "competitive MHC class II binding assay, statements over the panel", "conditions": "peptides of reduced purity", "text": "as §1\nThis is of significance as purities were seen to vary from 60-90%. This would have a considerable effect on the ability of a peptide to compete if it is relatively impure. […] Therefore, if purity is taken into consideration, they may in fact have an equivalent affinity to a peptide of a higher purity."}, "[4]": {"molecular_target": "T1, human MHC class II allotype HLA-DRB1*1101 (human)", "T1 construct": "Source and construct of the MHC protein in the assay are not described", "test": "competitive MHC class II binding assay; competitor control peptide influenza haemagglutinin 307-319"}, "[5]": {"molecular_target": "T2, human MHC class II allotype HLA-DRB1*0101 (human)", "T2 construct": "Source and construct of the MHC protein in the assay are not described", "test": "competitive MHC class II binding assay; competitor control peptide influenza haemagglutinin 307-319"}, "[6]": {"molecular_target": "T3, human MHC class II allotype HLA-DRB1*0401 (human)", "T3 construct": "Source and construct of the MHC protein in the assay are not described", "test": "competitive MHC class II binding assay; competitor control peptide influenza haemagglutinin 307-319"}, "[7]": {"molecular_target": "T4, human MHC class II allotype HLA-DRB1*0701 (human)", "T4 construct": "Source and construct of the MHC protein in the assay are not described", "test": "competitive MHC class II binding assay; competitor control peptide influenza haemagglutinin 307-319"}, "[8]": {"molecular_target": "T5, human MHC class II allotype DQA1*0102/DQB1*0602 (human, UniProt P01920 33-230, limits assumed)", "T5 construct": "Source and construct of the MHC protein in the assay are not described", "T5 MHC II alpha": "not shown", "T5 MHC II beta": "not shown", "test": "competitive MHC class II binding assay; competitor control peptide human insulin B 1-15"}, "[9]": {"molecular_target": "T6, human MHC class II allotype HLA-DRB1*0301 (human)", "T6 construct": "Source and construct of the MHC protein in the assay are not described", "test": "competitive MHC class II binding assay; competitor control peptide hsp 65 2-16"}, "[10]": {"molecular_target": "T7, human MHC class II allotype HLA-DRB1*1501 (human)", "T7 construct": "Source and construct of the MHC protein in the assay are not described", "test": "competitive MHC class II binding assay; competitor control peptide myelin basic protein 85-99"}},
  "note": "“And” between values parts separate entries of the source, which are not always exact repeats. Identical values can stand only once. Where a SMILES comes first, the peptide text is derived from it.",
  "data": [
    {"molecule": "CSCC[C@H](NC(=O)[C@H](CO)NC(=O)[C@@H](NC(=O)[C@@H](NC(=O)[C@H](CC(=O)O)NC(=O)[C@H](CC(=O)O)NC(=O)[C@@H](N)Cc1c[nH]cn1)C(C)C)C(C)C)C(=O)N[C@@H](CCC(=O)O)C(=O)N[C@@H](Cc1ccc(O)cc1)C(=O)N[C@@H](CC(=O)O)C(=O)N[C@@H](CC(C)C)C(=O)N[C@@H](C)C(=O)N[C@@H](Cc1ccc(O)cc1)C(=O)N[C@@H](CCCCN)C(=O)N[C@@H](CC(C)C)C(=O)O", "note": "[HDM39A] (H-HDDVVSMEYDLAYKL-OH; N-terminus and C-terminus assumed)", "values": [
      {"measurement": "relative binding: ratio of peptide IC50 to control peptide IC50, DRB1*0701", "setting": "DRB1*0701", "result": 0.71},
      {"measurement": "relative binding: ratio of peptide IC50 to control peptide IC50, DRB1*0401", "setting": "DRB1*0401", "result": 76.19},
      {"measurement": "solubility", "setting": "[1]", "result": "1000 µM and 1800 µg/mL"},
      {"measurement": "Solubility test", "setting": "[2]", "result": "YES"},
      {"measurement": "relative binding: ratio of peptide IC50 to control peptide IC50, DQA1*0102 DQB1*0602", "setting": "DQA1*0102/DQB1*0602", "result": 0.1}
    ]},
    {"molecule": "CSCC[C@H](NC(=O)[C@H](CO)NC(=O)[C@@H](N)C(C)C)C(=O)N[C@@H](CCC(=O)O)C(=O)N[C@@H](Cc1ccc(O)cc1)C(=O)N[C@@H](CC(=O)O)C(=O)N[C@@H](CC(C)C)C(=O)N[C@@H](C)C(=O)N[C@@H](Cc1ccc(O)cc1)C(=O)N[C@@H](CCCCN)C(=O)N[C@@H](CC(C)C)C(=O)NCC(=O)N[C@@H](CC(=O)O)C(=O)N[C@@H](CC(C)C)C(=O)N[C@@H](Cc1c[nH]cn1)C(=O)O", "note": "[HDM40A] (H-VSMEYDLAYKLGDLH-OH; N-terminus and C-terminus assumed)", "values": [
      {"measurement": "relative binding: ratio of peptide IC50 to control peptide IC50, DRB1*0701", "setting": "DRB1*0701", "result": 2.29},
      {"measurement": "relative binding: ratio of peptide IC50 to control peptide IC50, DRB1*1101", "setting": "DRB1*1101", "result": 6},
      {"measurement": "solubility", "setting": "[1]", "result": "1000 µM and 1800 µg/mL"},
      {"measurement": "Solubility test", "setting": "[2]", "result": "YES"}
    ]},
    {"molecule": "DGLEVDVPGIDPNACH (listed as Dermatophagoides pteronyssinus) [HDM23A]", "values": [
      {"measurement": "Solubility test", "setting": "[2]", "result": "YES"},
      {"measurement": "binding affinity in the competition assay (in words)", "setting": "[3]", "result": "low affinity binding"}
    ]},
    {"molecule": "B1", "values": [
      {"measurement": "ratio of its own IC50 to that of the control peptide", "setting": "[4]", "result": 4.1},
      {"measurement": "ratio of its own IC50 to that of the control peptide", "setting": "[5]", "result": 13.5},
      {"measurement": "ratio of its own IC50 to that of the control peptide", "setting": "[6]", "result": 0.78}
    ]},
    {"molecule": "B2", "values": [
      {"measurement": "ratio of its own IC50 to that of the control peptide", "setting": "[5]", "result": 42.3},
      {"measurement": "ratio of its own IC50 to that of the control peptide", "setting": "[7]", "result": 16.3},
      {"measurement": "ratio of its own IC50 to that of the control peptide", "setting": "[8]", "result": 0.61}
    ]},
    {"molecule": "B3", "values": [
      {"measurement": "ratio of its own IC50 to that of the control peptide", "setting": "[9]", "result": 347},
      {"measurement": "ratio of its own IC50 to that of the control peptide", "setting": "[8]", "result": 0.76}
    ]},
    {"molecule": "B4", "values": [
      {"measurement": "ratio of its own IC50 to that of the control peptide", "setting": "[4]", "result": 13.6},
      {"measurement": "ratio of its own IC50 to that of the control peptide", "setting": "[7]", "result": 15.7},
      {"measurement": "ratio of its own IC50 to that of the control peptide", "setting": "[9]", "result": 211}
    ]},
    {"molecule": "B5", "values": [
      {"measurement": "ratio of its own IC50 to that of the control peptide", "setting": "[6]", "result": 76.2},
      {"measurement": "ratio of its own IC50 to that of the control peptide", "setting": "[7]", "result": 0.71},
      {"measurement": "ratio of its own IC50 to that of the control peptide", "setting": "[8]", "result": 0.1}
    ]},
    {"molecule": "B6", "values": [
      {"measurement": "ratio of its own IC50 to that of the control peptide", "setting": "[4]", "result": 80},
      {"measurement": "ratio of its own IC50 to that of the control peptide", "setting": "[6]", "result": 329}
    ]},
    {"molecule": "B7", "values": [
      {"measurement": "ratio of its own IC50 to that of the control peptide", "setting": "[10]", "result": 671},
      {"measurement": "ratio of its own IC50 to that of the control peptide", "setting": "[8]", "result": 1.7}
    ]},
    {"molecule": "B8", "values": [
      {"measurement": "ratio of its own IC50 to that of the control peptide", "setting": "[4]", "result": 10.3},
      {"measurement": "ratio of its own IC50 to that of the control peptide", "setting": "[5]", "result": 200},
      {"measurement": "ratio of its own IC50 to that of the control peptide", "setting": "[6]", "result": 52.2}
    ]}
  ]
}
